Source: article PMC6006169, “Conformational switching in the coiled-coil domains of a proteasomal ATPase regulates substrate processing” (Nature Communications, 2018)

Key:
[1] = target: the molecule itself; test: cross-linking; disulfide cross-linking of engineered cysteines; 1 mM tetrathionate, 1-2 h, room temperature, 50 mM Tris pH 7.5 + 5% glycerol, no nucleotide, PAN at or below 0.25 mg/ml; desalted on G50, non-reducing SDS-PAGE, Coomassie, densitometry of monomers vs. dimers
[2] = target: the molecule itself; test: native gel or EMSA; native-PAGE of oxidized PAN cysteine mutants

Row | Protein | binding result [1] | stoichiometry N [2] | percent cross-linked [1] [%]
1 | PAN 80C (enzyme, Methanococcus jannaschii, UniProt Q58576 1-430, looked up, Expressed from pRSETA; no tag named; source: E. coli BL21-DE3-RIL, purified (heat precipitation, anion exchange, size exclusion)) MVFEEFISTELKKEKKAFTEEFKEEKEINDNSNLKNDLLKEELQEKARIAELESRILKLELEKKELERENLQLMKENEICRRELDRMRVPPLIVGTVVDKVGERKVVVKSSTGPSFLVNVSHFVNPDDLAPGKRVCLNQQTLTVVDVLPENKDYRAKAMEVDERPNVRYEDIGGLEKQMQEIREVVELPLKHPELFEKVGIEPPKGILLYGPPGTGKTLLAKAVATETNATFIRVVGSELVKKFIGEGASLVKDIFKLAKEKAPSIIFIDEIDAIAAKRTDALTGGDREVQRTLMQLLAEMDGFDARGDVKIIGATNRPDILDPAILRPGRFDRIIEVPAPDEKGRLEILKIHTRKMNLAEDVNLEEIAKMTEGCVGAELKAICTEAGMNAIRELRDYVTMDDFRKAVEKIMEKKKVKVKEPAHLDVLYR | binds | – | –
2 | PAN 80+59C (enzyme, Methanococcus jannaschii, UniProt Q58576 1-430, looked up, Expressed from pRSETA; no tag named; source: E. coli BL21-DE3-RIL, purified (heat precipitation, anion exchange, size exclusion)) MVFEEFISTELKKEKKAFTEEFKEEKEINDNSNLKNDLLKEELQEKARIAELESRILKCELEKKELERENLQLMKENEICRRELDRMRVPPLIVGTVVDKVGERKVVVKSSTGPSFLVNVSHFVNPDDLAPGKRVCLNQQTLTVVDVLPENKDYRAKAMEVDERPNVRYEDIGGLEKQMQEIREVVELPLKHPELFEKVGIEPPKGILLYGPPGTGKTLLAKAVATETNATFIRVVGSELVKKFIGEGASLVKDIFKLAKEKAPSIIFIDEIDAIAAKRTDALTGGDREVQRTLMQLLAEMDGFDARGDVKIIGATNRPDILDPAILRPGRFDRIIEVPAPDEKGRLEILKIHTRKMNLAEDVNLEEIAKMTEGCVGAELKAICTEAGMNAIRELRDYVTMDDFRKAVEKIMEKKKVKVKEPAHLDVLYR | binds | – | –
3 | PAN 66C (enzyme, Methanococcus jannaschii, UniProt Q58576 1-430, looked up, Expressed from pRSETA; no tag named; source: E. coli BL21-DE3-RIL, purified (heat precipitation, anion exchange, size exclusion)) MVFEEFISTELKKEKKAFTEEFKEEKEINDNSNLKNDLLKEELQEKARIAELESRILKLELEKKECERENLQLMKENEILRRELDRMRVPPLIVGTVVDKVGERKVVVKSSTGPSFLVNVSHFVNPDDLAPGKRVCLNQQTLTVVDVLPENKDYRAKAMEVDERPNVRYEDIGGLEKQMQEIREVVELPLKHPELFEKVGIEPPKGILLYGPPGTGKTLLAKAVATETNATFIRVVGSELVKKFIGEGASLVKDIFKLAKEKAPSIIFIDEIDAIAAKRTDALTGGDREVQRTLMQLLAEMDGFDARGDVKIIGATNRPDILDPAILRPGRFDRIIEVPAPDEKGRLEILKIHTRKMNLAEDVNLEEIAKMTEGCVGAELKAICTEAGMNAIRELRDYVTMDDFRKAVEKIMEKKKVKVKEPAHLDVLYR | binds | – | –
4 | PAN 87+73C (enzyme, Methanococcus jannaschii, UniProt Q58576 1-430, looked up, Expressed from pRSETA; no tag named; also called PAN 87C+73C; source: E. coli BL21-DE3-RIL, purified (heat precipitation, anion exchange, size exclusion)) MVFEEFISTELKKEKKAFTEEFKEEKEINDNSNLKNDLLKEELQEKARIAELESRILKLELEKKELERENLQCMKENEILRRELDRCRVPPLIVGTVVDKVGERKVVVKSSTGPSFLVNVSHFVNPDDLAPGKRVCLNQQTLTVVDVLPENKDYRAKAMEVDERPNVRYEDIGGLEKQMQEIREVVELPLKHPELFEKVGIEPPKGILLYGPPGTGKTLLAKAVATETNATFIRVVGSELVKKFIGEGASLVKDIFKLAKEKAPSIIFIDEIDAIAAKRTDALTGGDREVQRTLMQLLAEMDGFDARGDVKIIGATNRPDILDPAILRPGRFDRIIEVPAPDEKGRLEILKIHTRKMNLAEDVNLEEIAKMTEGCVGAELKAICTEAGMNAIRELRDYVTMDDFRKAVEKIMEKKKVKVKEPAHLDVLYR | – | 6 | –
5 | PAN 73+66C (enzyme, Methanococcus jannaschii, UniProt Q58576 1-430, looked up, Expressed from pRSETA; no tag named; source: E. coli BL21-DE3-RIL, purified (heat precipitation, anion exchange, size exclusion)) MVFEEFISTELKKEKKAFTEEFKEEKEINDNSNLKNDLLKEELQEKARIAELESRILKLELEKKECERENLQCMKENEILRRELDRMRVPPLIVGTVVDKVGERKVVVKSSTGPSFLVNVSHFVNPDDLAPGKRVCLNQQTLTVVDVLPENKDYRAKAMEVDERPNVRYEDIGGLEKQMQEIREVVELPLKHPELFEKVGIEPPKGILLYGPPGTGKTLLAKAVATETNATFIRVVGSELVKKFIGEGASLVKDIFKLAKEKAPSIIFIDEIDAIAAKRTDALTGGDREVQRTLMQLLAEMDGFDARGDVKIIGATNRPDILDPAILRPGRFDRIIEVPAPDEKGRLEILKIHTRKMNLAEDVNLEEIAKMTEGCVGAELKAICTEAGMNAIRELRDYVTMDDFRKAVEKIMEKKKVKVKEPAHLDVLYR | binds | – | –
6 | PAN 80+66C (enzyme, Methanococcus jannaschii, UniProt Q58576 1-430, looked up, Expressed from pRSETA; no tag named; source: E. coli BL21-DE3-RIL, purified (heat precipitation, anion exchange, size exclusion)) MVFEEFISTELKKEKKAFTEEFKEEKEINDNSNLKNDLLKEELQEKARIAELESRILKLELEKKECERENLQLMKENEICRRELDRMRVPPLIVGTVVDKVGERKVVVKSSTGPSFLVNVSHFVNPDDLAPGKRVCLNQQTLTVVDVLPENKDYRAKAMEVDERPNVRYEDIGGLEKQMQEIREVVELPLKHPELFEKVGIEPPKGILLYGPPGTGKTLLAKAVATETNATFIRVVGSELVKKFIGEGASLVKDIFKLAKEKAPSIIFIDEIDAIAAKRTDALTGGDREVQRTLMQLLAEMDGFDARGDVKIIGATNRPDILDPAILRPGRFDRIIEVPAPDEKGRLEILKIHTRKMNLAEDVNLEEIAKMTEGCVGAELKAICTEAGMNAIRELRDYVTMDDFRKAVEKIMEKKKVKVKEPAHLDVLYR | – | 6 | 72
7 | PAN 87+59C (enzyme, Methanococcus jannaschii, UniProt Q58576 1-430, looked up, Expressed from pRSETA; no tag named; source: E. coli BL21-DE3-RIL, purified (heat precipitation, anion exchange, size exclusion)) MVFEEFISTELKKEKKAFTEEFKEEKEINDNSNLKNDLLKEELQEKARIAELESRILKCELEKKELERENLQLMKENEILRRELDRCRVPPLIVGTVVDKVGERKVVVKSSTGPSFLVNVSHFVNPDDLAPGKRVCLNQQTLTVVDVLPENKDYRAKAMEVDERPNVRYEDIGGLEKQMQEIREVVELPLKHPELFEKVGIEPPKGILLYGPPGTGKTLLAKAVATETNATFIRVVGSELVKKFIGEGASLVKDIFKLAKEKAPSIIFIDEIDAIAAKRTDALTGGDREVQRTLMQLLAEMDGFDARGDVKIIGATNRPDILDPAILRPGRFDRIIEVPAPDEKGRLEILKIHTRKMNLAEDVNLEEIAKMTEGCVGAELKAICTEAGMNAIRELRDYVTMDDFRKAVEKIMEKKKVKVKEPAHLDVLYR | binds | – | –
8 | PAN-M87C (proteasome-activating nucleotidase, M87C mutant) (enzyme, Methanococcus jannaschii, UniProt Q58576 1-430, looked up, Expressed from pRSETA; The fraction F1 after partial trypsin proteolysis is called full-length or near full length; also called PAN-87C; M87C PAN; source: E. coli BL21-DE3-RIL, purified (heat precipitation, anion exchange, size exclusion)) MVFEEFISTELKKEKKAFTEEFKEEKEINDNSNLKNDLLKEELQEKARIAELESRILKLELEKKELERENLQLMKENEILRRELDRCRVPPLIVGTVVDKVGERKVVVKSSTGPSFLVNVSHFVNPDDLAPGKRVCLNQQTLTVVDVLPENKDYRAKAMEVDERPNVRYEDIGGLEKQMQEIREVVELPLKHPELFEKVGIEPPKGILLYGPPGTGKTLLAKAVATETNATFIRVVGSELVKKFIGEGASLVKDIFKLAKEKAPSIIFIDEIDAIAAKRTDALTGGDREVQRTLMQLLAEMDGFDARGDVKIIGATNRPDILDPAILRPGRFDRIIEVPAPDEKGRLEILKIHTRKMNLAEDVNLEEIAKMTEGCVGAELKAICTEAGMNAIRELRDYVTMDDFRKAVEKIMEKKKVKVKEPAHLDVLYR | – | 6 | –
9 | PAN 80+73C (enzyme, Methanococcus jannaschii, UniProt Q58576 1-430, looked up, Expressed from pRSETA; no tag named; source: E. coli BL21-DE3-RIL, purified (heat precipitation, anion exchange, size exclusion)) MVFEEFISTELKKEKKAFTEEFKEEKEINDNSNLKNDLLKEELQEKARIAELESRILKLELEKKELERENLQCMKENEICRRELDRMRVPPLIVGTVVDKVGERKVVVKSSTGPSFLVNVSHFVNPDDLAPGKRVCLNQQTLTVVDVLPENKDYRAKAMEVDERPNVRYEDIGGLEKQMQEIREVVELPLKHPELFEKVGIEPPKGILLYGPPGTGKTLLAKAVATETNATFIRVVGSELVKKFIGEGASLVKDIFKLAKEKAPSIIFIDEIDAIAAKRTDALTGGDREVQRTLMQLLAEMDGFDARGDVKIIGATNRPDILDPAILRPGRFDRIIEVPAPDEKGRLEILKIHTRKMNLAEDVNLEEIAKMTEGCVGAELKAICTEAGMNAIRELRDYVTMDDFRKAVEKIMEKKKVKVKEPAHLDVLYR | binds | – | –
10 | PAN 87+73+59C triple mutant (enzyme, Methanococcus jannaschii, UniProt Q58576 1-430, looked up, Expressed from pRSETA; no tag named; also called PAN 87C+73C+59C; source: E. coli BL21-DE3-RIL, purified (heat precipitation, anion exchange, size exclusion)) MVFEEFISTELKKEKKAFTEEFKEEKEINDNSNLKNDLLKEELQEKARIAELESRILKCELEKKELERENLQCMKENEILRRELDRCRVPPLIVGTVVDKVGERKVVVKSSTGPSFLVNVSHFVNPDDLAPGKRVCLNQQTLTVVDVLPENKDYRAKAMEVDERPNVRYEDIGGLEKQMQEIREVVELPLKHPELFEKVGIEPPKGILLYGPPGTGKTLLAKAVATETNATFIRVVGSELVKKFIGEGASLVKDIFKLAKEKAPSIIFIDEIDAIAAKRTDALTGGDREVQRTLMQLLAEMDGFDARGDVKIIGATNRPDILDPAILRPGRFDRIIEVPAPDEKGRLEILKIHTRKMNLAEDVNLEEIAKMTEGCVGAELKAICTEAGMNAIRELRDYVTMDDFRKAVEKIMEKKKVKVKEPAHLDVLYR | – | – | 74
11 | PAN 73C (enzyme, Methanococcus jannaschii, UniProt Q58576 1-430, looked up, Expressed from pRSETA; no tag named; source: E. coli BL21-DE3-RIL, purified (heat precipitation, anion exchange, size exclusion)) MVFEEFISTELKKEKKAFTEEFKEEKEINDNSNLKNDLLKEELQEKARIAELESRILKLELEKKELERENLQCMKENEILRRELDRMRVPPLIVGTVVDKVGERKVVVKSSTGPSFLVNVSHFVNPDDLAPGKRVCLNQQTLTVVDVLPENKDYRAKAMEVDERPNVRYEDIGGLEKQMQEIREVVELPLKHPELFEKVGIEPPKGILLYGPPGTGKTLLAKAVATETNATFIRVVGSELVKKFIGEGASLVKDIFKLAKEKAPSIIFIDEIDAIAAKRTDALTGGDREVQRTLMQLLAEMDGFDARGDVKIIGATNRPDILDPAILRPGRFDRIIEVPAPDEKGRLEILKIHTRKMNLAEDVNLEEIAKMTEGCVGAELKAICTEAGMNAIRELRDYVTMDDFRKAVEKIMEKKKVKVKEPAHLDVLYR | binds | – | –
12 | PAN 87+80C (enzyme, Methanococcus jannaschii, UniProt Q58576 1-430, looked up, Expressed from pRSETA; no tag named; source: E. coli BL21-DE3-RIL, purified (heat precipitation, anion exchange, size exclusion)) MVFEEFISTELKKEKKAFTEEFKEEKEINDNSNLKNDLLKEELQEKARIAELESRILKLELEKKELERENLQLMKENEICRRELDRCRVPPLIVGTVVDKVGERKVVVKSSTGPSFLVNVSHFVNPDDLAPGKRVCLNQQTLTVVDVLPENKDYRAKAMEVDERPNVRYEDIGGLEKQMQEIREVVELPLKHPELFEKVGIEPPKGILLYGPPGTGKTLLAKAVATETNATFIRVVGSELVKKFIGEGASLVKDIFKLAKEKAPSIIFIDEIDAIAAKRTDALTGGDREVQRTLMQLLAEMDGFDARGDVKIIGATNRPDILDPAILRPGRFDRIIEVPAPDEKGRLEILKIHTRKMNLAEDVNLEEIAKMTEGCVGAELKAICTEAGMNAIRELRDYVTMDDFRKAVEKIMEKKKVKVKEPAHLDVLYR | binds | – | –
